The target in assay [1] is TGF-β2.
For assay [2], the target named is TGF-β1.
The next assay addresses Synagis-T22d35 (UniProt P37173). The experiment in a line: SPR. A general note: Surface plasmon resonance follows binding to a sensor surface in real time, without labels.
The target of a further assay is Synagis. The experiment in a line: SPR.
Assay [3] deals with TGF-β1. This is another data set of the same source.
Target sequence in this assay (P01137 279-390): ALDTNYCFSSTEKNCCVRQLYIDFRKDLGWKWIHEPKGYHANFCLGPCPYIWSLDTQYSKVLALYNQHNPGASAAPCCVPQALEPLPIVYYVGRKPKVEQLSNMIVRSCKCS
Assay [4] addresses TGF-β1. This is another data set of the same source.
Target sequence in this assay (P01137 279-390): as above
Assay [5] has as its target TGF-β2. The source holds these as a separate data set.
Target sequence in this assay (P61812 303-414): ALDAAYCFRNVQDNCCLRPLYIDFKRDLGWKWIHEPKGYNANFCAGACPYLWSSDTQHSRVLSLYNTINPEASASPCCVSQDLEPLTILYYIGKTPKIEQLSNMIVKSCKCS

Like-named read-outs stand apart in the source and are kept apart here.

Chain of Synagis (heavy, as listed by the source, chain 1 of 2): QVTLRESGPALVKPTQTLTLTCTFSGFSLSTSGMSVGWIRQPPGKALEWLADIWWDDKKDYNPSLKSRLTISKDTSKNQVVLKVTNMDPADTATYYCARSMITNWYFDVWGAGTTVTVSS
Chain of Synagis (light, as listed by the source, chain 2 of 2): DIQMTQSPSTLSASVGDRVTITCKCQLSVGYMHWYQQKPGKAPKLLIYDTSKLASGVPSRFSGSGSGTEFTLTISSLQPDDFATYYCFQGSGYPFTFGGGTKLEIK
Chain of RSV-F (P03420 26-574): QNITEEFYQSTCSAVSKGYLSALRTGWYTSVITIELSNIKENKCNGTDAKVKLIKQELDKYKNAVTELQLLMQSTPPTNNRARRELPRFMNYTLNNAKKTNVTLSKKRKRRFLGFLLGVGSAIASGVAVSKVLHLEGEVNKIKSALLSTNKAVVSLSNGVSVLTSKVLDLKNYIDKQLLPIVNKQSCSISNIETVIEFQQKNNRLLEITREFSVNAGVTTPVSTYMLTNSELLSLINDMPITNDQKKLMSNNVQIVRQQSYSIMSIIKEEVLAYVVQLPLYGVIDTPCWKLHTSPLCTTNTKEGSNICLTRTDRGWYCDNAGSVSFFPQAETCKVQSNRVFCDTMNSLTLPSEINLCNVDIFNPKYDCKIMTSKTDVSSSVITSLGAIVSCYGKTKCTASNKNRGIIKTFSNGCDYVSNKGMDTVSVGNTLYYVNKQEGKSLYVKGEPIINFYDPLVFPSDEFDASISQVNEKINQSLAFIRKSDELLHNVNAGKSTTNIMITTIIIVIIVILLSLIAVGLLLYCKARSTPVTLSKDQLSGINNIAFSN
Chain of Avastin-T22d35 (P37173 whole entry, looked up): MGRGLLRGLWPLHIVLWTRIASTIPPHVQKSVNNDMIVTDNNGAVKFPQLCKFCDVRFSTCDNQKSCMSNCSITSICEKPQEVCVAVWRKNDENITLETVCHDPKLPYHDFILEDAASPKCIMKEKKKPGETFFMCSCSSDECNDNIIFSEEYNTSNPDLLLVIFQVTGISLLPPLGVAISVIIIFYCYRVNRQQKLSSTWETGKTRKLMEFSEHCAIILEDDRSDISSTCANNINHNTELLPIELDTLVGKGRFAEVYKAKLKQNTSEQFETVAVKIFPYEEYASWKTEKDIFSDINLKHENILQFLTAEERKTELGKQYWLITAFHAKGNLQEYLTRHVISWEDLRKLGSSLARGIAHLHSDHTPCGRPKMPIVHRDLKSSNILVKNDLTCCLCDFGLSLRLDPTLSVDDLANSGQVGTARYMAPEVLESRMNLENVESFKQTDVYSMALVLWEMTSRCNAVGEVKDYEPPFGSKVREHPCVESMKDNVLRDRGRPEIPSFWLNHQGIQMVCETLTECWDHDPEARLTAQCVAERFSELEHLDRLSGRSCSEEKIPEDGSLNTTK
Chain of T22d35-hIgG2Fc(CC)ΔK (P37173 other isoform, or with tags, fused parts or gaps mutant): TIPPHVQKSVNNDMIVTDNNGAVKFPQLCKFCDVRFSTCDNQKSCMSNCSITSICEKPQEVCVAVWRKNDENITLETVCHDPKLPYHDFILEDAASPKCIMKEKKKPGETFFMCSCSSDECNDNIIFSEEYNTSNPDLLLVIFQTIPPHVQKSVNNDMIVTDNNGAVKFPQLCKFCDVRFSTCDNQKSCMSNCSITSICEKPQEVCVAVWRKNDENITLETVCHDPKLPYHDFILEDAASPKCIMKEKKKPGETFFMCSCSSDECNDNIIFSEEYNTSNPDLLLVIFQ
Chain of T22d35 (single-chain fusion of two TGF-β type II receptor ectodomains) (P37173 other isoform, or with tags, fused parts or gaps): as the sequence (P37173 other isoform, or with tags, fused parts or gaps mutant) above
Chain of hIgG2Fc(CC)ΔK-T22d35 (P37173 other isoform, or with tags, fused parts or gaps mutant): as above

In the assay with TGF-β2 [1], “Avastin-T22d35 (from UniProt P37173 23-166; P37173 23-166) (antibody)” yielded an IC50 (nM) of neutralization of TGF-β2 (10 pM), A549 IL-11 release assay of 2.99 nM. The same substance had an IC50 (nM) of neutralization of TGF-β3 (10 pM), A549 IL-11 release assay with TGF-β3 of 0.00276 nM.

In the assay with TGF-β3, “Cetuximab-T2m (from UniProt P37173 23-166) (antibody)” showed an IC50 (nM) of neutralization of TGF-β3 (10 pM), A549 IL-11 release assay of 0.0332 nM.

Take “Cetuximab-T22d35 (from UniProt P37173 23-166; P37173 23-166) (antibody)”: the IC50 (nM) of neutralization of TGF-β2 (10 pM), A549 IL-11 release assay with TGF-β2 [1] came out at 3.33 nM. This substance also gave an IC50 (nM) of neutralization of TGF-β3 (10 pM), A549 IL-11 release assay in the assay with TGF-β3 of 0.00428 nM.

In the assay with TGF-β1 [2], “FC5VHH-Fc-T2m (from UniProt P37173 23-166) (Fc fusion)” showed an IC50 (nM) of neutralization of TGF-β1 (10 pM), A549 IL-11 release assay of 0.00569 nM.

The substance “FC5VHH-Fc-T22d35 (from UniProt P37173 23-166; P37173 23-166) (Fc fusion)” yielded an IC50 (nM) of neutralization of TGF-β1 (10 pM), A549 IL-11 release assay in the assay with TGF-β1 [2] of 0.00235 nM.

“Herceptin-T22d35 (from UniProt P37173 23-166; P37173 23-166) (antibody)” gave an IC50 (nM) of neutralization of TGF-β2 (10 pM), A549 IL-11 release assay in the assay with TGF-β2 [1] of 4.35 nM. For the same substance, the IC50 (nM) of neutralization of TGF-β3 (10 pM), A549 IL-11 release assay with TGF-β3 was found to be 0.00249 nM.

The term Kd denotes a measure of binding affinity in units of concentration. A low value points to a tighter complex. One may read the koff as the rate constant with which the complex falls apart. A lower koff goes with a long-lived complex. The term kon denotes the second-order rate constant of association. In the assay with Synagis-T22d35, “RSV-F (from UniProt P03420 26-574) (natural protein)” had a Kd of 4.1 nM, an off-rate constant (koff) of 0.00142 s⁻¹ and a kon of 35500 M⁻¹ s⁻¹. Moreover, in the assay with Synagis, the Kd was 6.6 nM, the off-rate (koff) was determined as 0.00168 s⁻¹ and the kon was 25700 M⁻¹ s⁻¹.

Consider “T22d35 (single-chain fusion of two TGF-β type II receptor ectodomains) (from UniProt P37173 23-166; P37173 23-166) (domain or fragment)”, for which the IC50 (nM) of neutralization of TGF-β1 (10 pM), A549 IL-11 release assay with TGF-β1 [3] worked out at 3.25 nM. The substance further displayed an IC50 of neutralization of TGF-β1, A549 IL-11 release assay (Figure 2B) in the assay with TGF-β1 [4] of 0.5 nM.

The substance “T22d35-hIgG2Fc(CC)ΔK (from UniProt P37173 23-166; P37173 23-166) (Fc fusion)” yielded an IC50 (nM) of neutralization of TGF-β1 (10 pM), A549 IL-11 release assay with TGF-β1 [3] of 0.00331 nM. For the same substance, the IC50 (nM) of neutralization of TGF-β2 (10 pM), A549 IL-11 release assay with TGF-β2 [5] was determined as 4.76 nM.

Turning to “hIgG2Fc(CC)ΔK-T22d35 (from UniProt P37173 23-166; P37173 23-166) (Fc fusion)”, the IC50 (nM) of neutralization of TGF-β2 (10 pM), A549 IL-11 release assay with TGF-β2 [5] is 1.41 nM.

The record behind these values is article PMC12597760.
